Test results reported in article PMC11417369, “DNA sequence and chromatin differentiate sequence-specific transcription factor binding in the human malaria parasite Plasmodium falciparum”.
Changes are numbered by the printed parent chain.

B1: GTGCAC_site10398 (dsDNA)
DNA 1: AAATACTTATTCGTGGTGCAACAATTTTAAAAATTA
DNA 2: TAATTTTTAAAATTGTTGCACCACGAATAAGTATTT
B2: GTGCAC_site10317 (dsDNA)
DNA 1: TTATATTTTCTCCGCGTGCACATATGTATACTATAC
DNA 2: GTATAGTATACATATGTGCACGCGGAGAAAATATAA
B3: GTGCAC_site9779 (dsDNA)
DNA 1: TTTTGTTATAATAAAGTGCATTTAGTCGGGTTACAA
DNA 2: TTGTAACCCGACTAAATGCACTTTATTATAACAAAA
B4: GTGCAC_site9494 (dsDNA)
DNA 1: TTGTTTTTAATATCGGTGCAATGGAAAGAAAAGAAG
DNA 2: CTTCTTTTCTTTCCATTGCACCGATATTAAAAACAA
B5: GTGCAC_site9648 (dsDNA)
DNA 1: ATAATTTCACAAATAGTGCAAAAATTAGTAAGAATA
DNA 2: TATTCTTACTAATTTTTGCACTATTTGTGAAATTAT
B6: GTGCAC_site10268 (dsDNA)
DNA 1: TTTTTTGTTATTGGCGTGCACATATCCATTTATAGT
DNA 2: ACTATAAATGGATATGTGCACGCCAATAACAAAAAA
B7: GTGCAC_site9543 (dsDNA)
DNA 1: CAATATTTGTTATGGGTGCAAACCGCATATATATAA
DNA 2: TTATATATATGCGGTTTGCACCCATAACAAATATTG
B8: GTGCAC_site9428 (dsDNA)
DNA 1: B7 DNA 1 with C1A, T6G, G25A
DNA 2: B7 DNA 2 with C12T, A31C, G36T
B9: GTGCAC_site9681 (dsDNA)
DNA 1: ACTACGAATGGTAGAGTGCAGTCTGGAGAAAAGTAC
DNA 2: GTACTTTTCTCCAGACTGCACTCTACCATTCGTAGT
B10: GTGCAC_site10324 (dsDNA)
DNA 1: TTGTTTTATTATTCGATGCACTACAGAAATATATTC
DNA 2: GAATATATTTCTGTAGTGCATCGAATAATAAAACAA
B11: GTGCAC_site10220 (dsDNA)
DNA 1: CATATAAAAAATATGGTGCAGTTTTTTTTTTTTTTT
DNA 2: AAAAAAAAAAAAAAACTGCACCATATTTTTTATATG
B12: GTGCAC_site9782 (dsDNA)
DNA 1: AAAATATAAATTCATGTGCACATATATATTTTGTTA
DNA 2: TAACAAAATATATATGTGCACATGAATTTATATTTT
B13: GTGCAC_site10565 (dsDNA)
DNA 1: AAAAAAGAACGCATAGTGCATATCTAAAAGATTTTT
DNA 2: AAAAATCTTTTAGATATGCACTATGCGTTCTTTTTT
B14: GTGCAC_site10217 (dsDNA)
DNA 1: ATATATTTTTGTAGTGTGCACGTTTATATGGTGAAA
DNA 2: TTTCACCATATAAACGTGCACACTACAAAAATATAT
B15: GTGCAC_site10474 (dsDNA)
DNA 1: TTTTTTGTTACAACAGTGCAAAAAAACCTTAATGTT
DNA 2: AACATTAAGGTTTTTTTGCACTGTTGTAACAAAAAA
B16: GTGCAC_site10638 (dsDNA)
DNA 1: TAATATAATGATGCAGTGCATATGTTAAAATGAAAA
DNA 2: TTTTCATTTTAACATATGCACTGCATCATTATATTA
B17: GTGCAC_site10240 (dsDNA)
DNA 1: CTTTTAGAATAATCAGTGCAAAAAAAAAAAAAAAAA
DNA 2: TTTTTTTTTTTTTTTTTGCACTGATTATTCTAAAAG
B18: GTGCAC_site10469 (dsDNA)
DNA 1: ATTTTCACCTGAACGGTGCATATTTAATTTTAGGTT
DNA 2: AACCTAAAATTAAATATGCACCGTTCAGGTGAAAAT

target: AP2-I D3 (Plasmodium falciparum, UniProt Q8IJW6 910-1027); test: gcPBM; about 25 ug protein; PBS, 1% milk, 0.2 mg/ml BSA, salmon testes DNA, 0.03% Triton X-100; settings: tags: N-terminal GST (pGEX-4T-1), kept; label: surface-attached array probe

Row | Binder | binding signal
1 | B1 | 10.4 ln median PBM intensity, better of two orientations
2 | B2 | 10.2 ln median PBM intensity, better of two orientations
3 | B3 | 10.4 ln median PBM intensity, better of two orientations
4 | B4 | 10.2 ln median PBM intensity, better of two orientations
5 | B5 | 10.3 ln median PBM intensity, better of two orientations
6 | B6 | 10.4 ln median PBM intensity, better of two orientations
7 | B7 | 10.3 ln median PBM intensity, better of two orientations
8 | B8 | 10.2 ln median PBM intensity, better of two orientations
9 | B9 | 9.19 ln median PBM intensity, better of two orientations
10 | B10 | 9.21 ln median PBM intensity, better of two orientations
11 | B11 | 10.3 ln median PBM intensity, better of two orientations
12 | B12 | 9.03 ln median PBM intensity, better of two orientations
13 | B13 | 9.16 ln median PBM intensity, better of two orientations
14 | B14 | 10.5 ln median PBM intensity, better of two orientations
15 | B15 | 10.2 ln median PBM intensity, better of two orientations
16 | B16 | 9.15 ln median PBM intensity, better of two orientations
17 | B17 | 10.1 ln median PBM intensity, better of two orientations
18 | B18 | 10 ln median PBM intensity, better of two orientations
